# Source: paper PMC9896449
# Molecular target: ShAb01H02K (knob-in-hole heterodimer of ShAb01-Fc and ShAb02-Fc) (nurse shark (Ginglymostoma cirratum))
# Assay: BLI
Substance,Kd [nM],koff [s⁻¹],kon [M⁻¹ s⁻¹]
"SARS-CoV-2 RBD B.1.1.7, Alpha (N501Y) (from UniProt P0DTC2 331-527) (domain or fragment)",1.5,0.000513,341000
"SARS-CoV-2 RBD B.1.351, Beta (K417N, E484K, N501Y) (from UniProt P0DTC2 331-527) (domain or fragment)",1.8,0.000538,294000
"SARS-CoV-2 RBD E484K, N501Y (from UniProt P0DTC2 331-527) (domain or fragment)",1.9,0.000512,277000
"SARS-CoV-2 RBD B.1.427/429, Epsilon (L452R) (from UniProt P0DTC2 331-527) (domain or fragment)",0.08,1.21e-05,156000
"SARS-CoV-2 RBD B.1.617, Kappa (L452R, E484Q) (from UniProt P0DTC2 331-527) (domain or fragment)",2.2,0.000326,151000
"SARS-CoV-2 RBD P.1, Gamma (K417T, E484K, N501Y) (from UniProt P0DTC2 331-527) (domain or fragment)",4.2,0.000305,73500
SARS-CoV-2 RBD K417N (from UniProt P0DTC2 331-527) (domain or fragment),1.3,0.000457,353000
"SARS-CoV-2 RBD B.1.617.2, Delta (L452R, T478K) (from UniProt P0DTC2 331-527) (domain or fragment)",< 0.001,< 1e-07,90000
"SARS-CoV-2 RBD B.1.525, Eta, Iota (E484K) (from UniProt P0DTC2 331-527) (domain or fragment)",1.6,0.000511,310000

# Molecular target: BiShAb0201 (ShAb02 VNAR - (GGGGS)5 - ShAb01 VNAR - human IgG1 Fc) (nurse shark (Ginglymostoma cirratum))
# Assay: BLI
Substance,Kd [nM],koff [s⁻¹],kon [M⁻¹ s⁻¹]
"SARS-CoV-2 RBD B.1.1.7, Alpha (N501Y) (from UniProt P0DTC2 331-527) (domain or fragment)",1.8,0.00037,207000
"SARS-CoV-2 RBD B.1.351, Beta (K417N, E484K, N501Y) (from UniProt P0DTC2 331-527) (domain or fragment)",2.1,0.000436,206000
"SARS-CoV-2 RBD E484K, N501Y (from UniProt P0DTC2 331-527) (domain or fragment)",2.3,0.000412,177000
"SARS-CoV-2 RBD B.1.427/429, Epsilon (L452R) (from UniProt P0DTC2 331-527) (domain or fragment)",1.2,0.000133,109000
"SARS-CoV-2 RBD B.1.617, Kappa (L452R, E484Q) (from UniProt P0DTC2 331-527) (domain or fragment)",4.4,0.000238,53600
"SARS-CoV-2 RBD P.1, Gamma (K417T, E484K, N501Y) (from UniProt P0DTC2 331-527) (domain or fragment)",6.5,0.000508,78000
SARS-CoV-2 RBD K417N (from UniProt P0DTC2 331-527) (domain or fragment),1.7,0.000352,211000
"SARS-CoV-2 RBD B.1.617.2, Delta (L452R, T478K) (from UniProt P0DTC2 331-527) (domain or fragment)",0.72,4.1e-05,57000
"SARS-CoV-2 RBD B.1.525, Eta, Iota (E484K) (from UniProt P0DTC2 331-527) (domain or fragment)",2,0.000415,210000
